“And” between values parts separate entries of the source, which are not always exact repeats. Equal values may be shown once. Read-outs that look alike come from different tables or passages of the source.

Test [1] addresses recombinant secreted NS1 (sNS1) of DENV2 clinical strain PVP94/07 with C-terminal His6-tag (dengue virus 2 (clinical strain PVP94/07)). Kind of test: cross-linking.
For test [2] the target is unchanged. Kind of test: cryo-EM structure; recombinant sNS1 complexed with Fab 5E3, molar ratio 1:1.2, final sNS1 0.25 mg/mL.
Test [3] shares this target. Kind of test: AUC; sedimentation velocity, 72,446 x g, 20 °C, 1 mg/ml protein in NTE buffer, SEDFIT continuous c(s) distribution.
Test [4] has the same target. The test can be described thus: cryo-EM structure; recombinant sNS1 alone, 0.25 mg/mL; 2D and 3D classification (Relion, CryoSPARC); also imaged with 0.05% DDM.
The target in test [5] is sNS1 from the supernatant of DENV2 PVP94/07 infected cells (dengue virus 2 (clinical strain PVP94/07)). The test can be described thus: cross-linking.
The target is the same in test [6]. The test can be described thus: cross-linking. This is another data set of the same source.

As for “recombinant secreted NS1 (sNS1) of DENV2 clinical strain PVP94/07 with C-terminal His6-tag (natural protein)”, the stoichiometry N (in general, the number of molecules, sites or subunits per partner or assembly) was 6 and 4 and 2 in test [1]; 2 and 4 in test [2]; 4 and 6 in test [3]; 6 and 4 in test [4].
As to “sNS1 from the supernatant of DENV2 PVP94/07 infected cells (natural protein)”, the stoichiometry N in test [5] is 4 and 2; in test [6] it was 6.

These data come from PMC9643530.
